Source: patent US20040005636A1, “Method for obtaining the binding affinities of a peptide library to a protein” (priority 2002, published 2004)
Ends that are not written are not given here.

Tests used:
[1] = target: T1, hERα-LBD (ligand binding domain of estrogen receptor α) (human, UniProt P03372 297-554); experiment: fluorescence polarization, labelled peptide 10 nM, hERα-LBD titrated, estradiol present; 100 may stand for above the assay limits
T1 construct: Assayed with estradiol, diethylstilbestrol, genistein or tamoxifen present; the ligand is named under assay in each row
T1 sequence (looked up): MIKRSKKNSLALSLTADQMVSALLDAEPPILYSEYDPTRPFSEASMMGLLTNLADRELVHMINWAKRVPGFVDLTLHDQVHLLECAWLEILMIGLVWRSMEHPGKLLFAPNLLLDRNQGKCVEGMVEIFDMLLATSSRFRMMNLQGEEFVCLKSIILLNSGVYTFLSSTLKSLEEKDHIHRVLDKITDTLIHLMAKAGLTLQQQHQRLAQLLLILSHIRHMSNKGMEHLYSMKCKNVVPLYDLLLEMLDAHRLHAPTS
Protocol: (§1) The concentration of protein varied between 0.001-20 μM in the following way. In 96 well plates, hTRβ-LBD or hERα-LBD was serially diluted from 40 μM to 0.002 μM in binding buffer (50 mM Sodium Phosphate, 150 mM NaCl, pH 7.2, 1 mM DTT, 1 mM EDTA, 0.01% NP40, 10% glycerol), containing 200 μM ligand (T₃, for TRβ, or estradiol, diethylstilbestrol, genistein or tamoxifen for ERα).
(§2) Subsequently 10 μL of diluted protein was added to 10 μL of fluorescent coregulator peptide (20 nM) in 384-well plates yielding final protein concentrations of […] and 10 nM fluorescent peptide concentration. The samples were allowed to equilibriate for 30 minutes. Binding was then measured using fluorescence polarization (excitation λ at 485 nm, emission λ at 530 nm) on an Analyst AD (available from Molecular Devices).
(§3) All experiments were carried out in quadruplicate, with each iteration containing the positive and negative controls, and 10-12 dose points. The data were then fit using Klotz plots to determine IC₅₀ values using nonlinear regression analysis that fits the data to a modification of the model of Heyduk and Lee. (Heyduk et al., Proc. Natl. Acad. Sci., (1990), 1774; Heyduk et al., Nature, (1993), 364, 6437; Heyduk et al., Methods Enzymol., 274, 492. Further analysis was conducted using Hill and Scatchard plots to confirm number and homogeneity of binding sites as discussed hereinbelow.

[2] = target: T1, hERα-LBD (ligand binding domain of …); experiment: fluorescence polarization, labelled peptide 10 nM, hERα-LBD titrated, genistein present; 100 may stand for above the assay limits
Protocol: as §1, §2, §3

[3] = target: T1, hERα-LBD (ligand binding domain of …); experiment: fluorescence polarization, hERα-LBD titrated, estradiol present; repeats Table 4; 100 may stand for above the assay limits
Protocol: as §1, §2, §3

[4] = target: T2, hTRβ-LBD (ligand binding domain of thyroid hormone receptor β) (human, UniProt P10828 202-461); experiment: fluorescence polarization, hTRβ-LBD titrated, T3 present; Table 3 prints >AL (assay limits) for this pair
T2 construct: Assayed with the small-molecule ligand T3 present
T2 sequence (looked up): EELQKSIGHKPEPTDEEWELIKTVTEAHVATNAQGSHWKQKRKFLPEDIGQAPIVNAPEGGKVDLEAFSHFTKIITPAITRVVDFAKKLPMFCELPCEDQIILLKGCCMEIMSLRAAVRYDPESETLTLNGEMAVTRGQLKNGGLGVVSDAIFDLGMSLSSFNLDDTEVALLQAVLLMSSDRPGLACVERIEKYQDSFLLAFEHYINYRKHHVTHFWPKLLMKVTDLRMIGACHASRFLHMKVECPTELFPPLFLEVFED
Protocol: as §1, §2, §3

[5] = target: T1, hERα-LBD (ligand binding domain of …); experiment: fluorescence polarization, labelled peptide 10 nM, hERα-LBD titrated, diethylstilbestrol present; 100 may stand for above the assay limits
Protocol: as §1, §2, §3

Measured: Kd

C(5‑iodoacetamidofluorescein)KKENNALLRYLLDRDDPSD [SRC3-3 coregulator peptide]
100 µM: [1] | [2] | [3] | [4] | [5]
